One substance from article doi:10.1101/2021.05.30.446358 can be followed below.

The target of the test is LH1 αβ-polypeptide pair of Rhodospirillum rubrum (Rhodospirillum rubrum) (UniProt P02947). The experiment in a line: cryo-EM structure.

The stoichiometry N is the number of molecules, sites or subunits per partner or assembly. Regarding “LH1 αβ-polypeptide pair of Rhodospirillum rubrum (from UniProt P02947 1-52; P02950 1-49) (complex)”, the stoichiometry N was 16.
